# The nanobody polyreactivity screen of Harvey et al. (2022)
# Test: yeast display, Sf9 membrane polyspecificity reagent, FACS + sequencing; frameworks hold sequencing errors
# Procedure, shortened: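 Polyreactivity labels are assigned by the sorting gate from which each nanobody was recovered. The gates were low and high (top ~1%), set on anti-HA fluorescence for expression and streptavidin fluorescence for reagent binding. Before sorting, galactose-induced (36–48 hours) yeast display cells were stained for 1 hour at 4 °C with 10% biotinylated, detergent-solubilized Sf9 membrane reagent.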
row,Sequence,polyreactivity (PSR sort gate)
1,QVQLVESGGGLVQAGGSLRLISAASGFTFAWYTMGWYRQAPGKERELVAAITDSGDSTYYADSVKGRFTISRDNAKNTVYLQMNSLKPEDTAVYYCATRSWYWDIWITEYDYWGQGTQVTVSS,low polyreactivity
2,QVQLVESGGGLVQAGGSLRLISAASGITFDPYAMGWYRQAPGKEREFVAAITRRSASTYYADSVKGRFTISRDNAKNTVYLQMNSLKPEDTALYYCAARGKVPYNYWGQGTQVTVSS,high polyreactivity
3,QVQLVESGGGLVQAGGSLRLISAASVRTFAPYPRGWYREAPGKDRELVAAISSGGGNTYYADSVKGRFTISRDHPKNTVYLLMNSLKPEDTAGYYCNAAQRRGGLGYWGQGTQVTVSS,high polyreactivity
4,QVQLVESGGGLVQAGGSLRLNCAASGITFSANAMGWYRQATGKERELVASNRSSGGSTYYADSVKGRFTISRDNEKKTVYLQMNSLKPEDTAVYSRNARLGPLYVYRQYDSWGQGTQVTVSS,low polyreactivity
5,QVQLVESGGGLVQAGGSLRLNCAASGRIFDVNAMGWYRQAPGKERELVAAITYSDGSTYYADSLKGRFTISRDTAKNTVYLQMNSLKPEDTAVYYCAATHEPVTPQPYGYWGQGTQVTVSS,low polyreactivity
6,QVQLVESGGGLVQAGGSLRLNCAASGRISTYYVMGWYRQAPGKERELVAAINWSDGSTYYADSVKGRFTISRDNAKNTVYFQMNSLKPEDTAVYYCNVDAGVEGGTVDYWGQGTQVTVSS,low polyreactivity
7,QVQLVESGGGLVQAGGSLRLNCAASGRNLPFYAMGWYRQAPGKERDLVATISWTSDSTYYADSVKGRFTISRDNPKNTVFLQMNSLIREVTGVYYCASVYTYTYASTVIYDHWGQGTQVTVSS,low polyreactivity
8,QVQLVESGGGLVQAGGSLRLNCAASGSTLARYAMGWYRQAPGKERELVAAITWSGVSTYYADSVKGRFTISRDNAKNTVYLQMISLKPEDTAVYYCNARIFRSPNPYDYWGEGTQVTVSS,high polyreactivity
9,QVQLVESGGGLVQAGGSLRLRCAASARTFRDYAMGCYRQATGKERELVAVIDSGGGTDYADSVKGRFTISRDNAKNTVYLQMNSLKPEDTAVYYCAADSSVRYRDTEDYWGQGTQVTVSS,low polyreactivity
10,QVQLVESGGGLVQAGGSLRLRCAASGFIFRLYAMGWYIQAPGKERELVASITQGGSTYYADSVKGRFTISRDNAKNTVYLLMNSLKPEDTAVNDCAATYLHVYRRRFYYWGQGTQVSVSS,high polyreactivity
11,QVQLVESGGGLVQAGGSLRLRCAASGFIFSYYAMGWYRQAPGKERELVAGISYNGNRTYYADSVEGRFTISRDNAKNTVYLQMNSLKPEDTAVYYCNVVCVLGGWYDLEYDYWGQGTQVTVSS,high polyreactivity
12,QVQLVESGGGLVQAGGSLRLRCAASGFTYSYYAMGWYRQAPGKERELVAAINSGGSTYYADSVKGRFTISRDNAKNTVFLLMNSLKPEDTAVYYCAAVYSPGRGYGYIYYYWGQGSQVTVSS,high polyreactivity
13,QVQLVESGGGLVQAGGSLRLRCAASGGIFGRYAMGWYRQAPGKERELVAAISKRGGSTYYADSVKGRFTISRDNAKNTVYLLMNSLKPEDTAVYYCNASQSVELGYDYLGQGTQVTVSS,high polyreactivity
14,QVQLVESGGGLVQAGGSLRLRCAASGGIFSIYAMGWYRQAPGKERELVAAISTSGGSTYYADSVKARFTISRDNAKNTVYLQMNSLKPEDTAVYYCNARSQQWWLSRYNYWGQGTQVTVSS,high polyreactivity
15,QVQLVESGGGLVQAGGSLRLRCAASGGIINWYAMGWYRQAQGKERELVAAISWRTTSTYYADSVKGRFTISRDTAKNTVYLQMNCLKPEDTAVYYCYASGEVLAAVVTYDYWGQGTQVTVSS,low polyreactivity
16,QVQLVESGGGLVQAGGSLRLRCAASGLIFAEYAIGWYRQAPGKERELVARITSGGSTDYADSVKGRFTISRDNAKNTVYLQMNSLKPEDTAVYYCAARYYSQDKNASTASDFDYWGQGTQVTVSS,low polyreactivity
17,QVQLVESGGGLVQAGGSLRLRCAASGNIFGIYTMAWYRQAPGKESDFVAVISLSGTSTYYADSVKGRFTISRDNAKNTVYLQMNSLKPEDTAVYYCNARTPHNKGRRRAYDYWGQGTEVTVSS,high polyreactivity
18,QVQLVESGGGLVQAGGSLRLRCAASGRIFGVYVMGWYRQAPGKESEFVAAISWSGSHTYYADSVKGRFTISRYNAKNTVYLQMNSLKPEDTAVYYCNADSYPDYTGPGLDWYDFWGQGTQVTVSS,low polyreactivity
19,QVQLVESGGGLVQAGGSLRLRCAASGRIFPYYAMGWYRQSPGKERELVAAIRWSGGDTYYADSVKGRFTISRDNAKNTVYLQMNSLKPEDTAVYYCAAKAYSYSRWGYYGYYYWGQGTQVTVSS,high polyreactivity
20,QVQLVESGGGLVQAGGSLRLRCAASGRIIFRNAMVWYRQAHGKERELVAAITRGGGSTYYADSVKGRFTISRDNAKNTVYLQMNSLKPEDTAVYYCAAGACYSLYSAYDYWGQGTQVTVSS,low polyreactivity
21,QVQLVESGGGLVQAGGSLRLRCAASGRIQPGNAMGWYRQATGKERELVAAISSGGRTNYADSVKGRFTISRDIAKITVYLQMNSLKPEDTAVYYCAKRTVWWSIWHYYPPTYNYWGQGTQVTVSS,high polyreactivity
